Assay [1] deals with T1, SARS-CoV spike [change] receptor binding domain (SARS-[change]), residues 325-533, Strep-tagged (SARS-CoV, UniProt P59594 325-533). Briefly: ELISA, serial dilution of supernatant after transfection. A general note: ELISA stands for enzyme-linked immunosorbent assay.
For assay [2], the target named is T2, SARS-CoV-2 spike S1B receptor binding domain (SARS2-S1B), residues 329-538, Strep-tagged (SARS-CoV-2 (strain Wuhan-Hu-1), UniProt P0DTC2 329-538). The assay is described as above.
For assay [3], the target named is T3, SARS-CoV-2 spike ectodomain (SARS2-Secto), residues 1-1,213, with C-terminal trimerization motif and Strep-tag (SARS-CoV-2 (strain Wuhan-Hu-1), UniProt P0DTC2 14-1213).
The target in assay [4] is T1, SARS-CoV spike [change] receptor ….
For assay [5], the target named is T2, SARS-CoV-2 spike S1B receptor binding ….
Assay [6] deals with T3, SARS-CoV-2 spike ectodomain …. This is another data set of the same source.
The target of assay [7] is T1, SARS-CoV spike [change] receptor …. This is another data set of the same source.
Assay [8] addresses T2, SARS-CoV-2 spike S1B receptor binding …. The source holds these as a separate data set.
Assay [9] concerns the target T1, SARS-CoV spike [change] receptor …. The source holds these as a separate data set.
For assay [10], the target named is T2, SARS-CoV-2 spike S1B receptor binding …. The source holds these as a separate data set.
Assay [11] concerns the target SARS-S with 28-a.a. cytoplasmic tail truncation, on pseudotyped VSV particles (SARS-CoV, UniProt P59594 14-1227). Briefly: cell-based or functional assay.
For assay [12], the target named is SARS2-S with 18-a.a. cytoplasmic tail truncation, on pseudotyped VSV particles (SARS-CoV-2, UniProt P0DTC2 14-1255). Briefly: cell-based or functional assay.
Assay [13] concerns the target WIV16-S with 19-a.a. cytoplasmic tail truncation, on pseudotyped VSV particles (bat SARS-like coronavirus WIV16). Briefly: cell-based or functional assay.
The target in assay [14] is T3, SARS-CoV-2 spike ectodomain …. Briefly: ELISA, antigen coated at equimolar amounts, mAb titrated.
Assay [15] deals with T1, SARS-CoV spike [change] receptor …. The description is as above.
Assay [16] concerns the target T2, SARS-CoV-2 spike S1B receptor binding …. Briefly: ELISA, antigen coated at equimolar amounts, mAb titrated; ELISA EC50, not BLI.

The values below come from US20210340225A1 (HARBOUR ANTIBODIES, published 2021).

B1: 49F1 VH41 VL42-4 (antibody, V domains shown)
VH: QVQLVQSGAEVKKPGSSVKVSCKASGGTFSSYAINWVRQAPGQGLEWMGGIIPIFGTANSAQKFQGRVTITADKSTSTAYMELSSLRSEDTAVYYCAREAGIPVAGLADWGQGTLVTVSS
VL: DIQMTQSPSTLSASVGDRVTITCRASQSISSYLNWYQQKPGKAPKLLIYKASSLESGVPSRFSGSGSGTEFTLTISSLQPDDFGTYYCQQYNSYYTFGQGTKLEIK
Take B1: the binding result in [1] and in assay [2] was “no binding (tested: undiluted supernatant)” throughout.

B2: 47D11 fully human IgG1 monoclonal antibody (antibody, V domains shown)
VH: QVQLQESGPGLVKPSETLSLTCSVSGGSISSHYWSWIRQPPGKGLEWIGYIYYSGSTNHNPSLKSRVTISVDTSKNQFSLKLSSVTAADTAVYYCARGVLLWFGEPIFEIWGQGTMVTVSS
VL: EIVMTQSPATLSVSPGERATLSCRASQSVSSSLAWYQQKPGQAPRLLIYGASTRAPGIPARFSGSGSGTEFTLTISSLQSEDFAVYYCQQYNNWPLTFGGGTKVEIKR
For B2, the Kd (commonly the free concentration of one partner at which half of the binding sites on the other are occupied at equilibrium, for simple one-to-one binding) in assay [3] amounted to 10.8 nM; in [4], 16.1 nM; in assay [5], 9.6 nM. The off-rate constant (koff) – broadly, a measure of how fast the partners let go of each other – stood at 9.85e-05 s⁻¹ in assay [6], 0.00021 s⁻¹ in assay [7] and 0.000137 s⁻¹ in assay [8]. The on-rate constant (kon) (usually the second-order rate constant of association) was determined as 9770 M⁻¹ s⁻¹ in assay [6], 20000 M⁻¹ s⁻¹ in assay [7] and 15100 M⁻¹ s⁻¹ in assay [8]. For the same molecule, the half-maximal effective concentration (EC50 (read off the curve)) in assay [9] and in assay [10] was about 0.1 µg/mL in each case. Also, in assay [11], the “IC50, infection of VeroE6 cells with SARS-S pseudotyped VSV (luciferase)” value amounted to 0.06 µg/mL. Also, the “IC50, infection of VeroE6 cells with SARS2-S pseudotyped VSV (luciferase)” value in [12] worked out at 0.08 µg/mL. Also, the “IC50, neutralization of WIV16-S pseudotyped VSV” value in assay [13] was 0.165 µg/mL. In addition, the EC50 (usually the midpoint of the concentration-response curve) in [14] turned out to be 0.15 µg/mL; in assay [15], 0.02 µg/mL; in assay [16] it was 0.03 µg/mL.
